Each sequence was assayed against Hck (UniProt P08631) (assay: phosphorylation enrichment, bacterial display (enrichment ratio); higher = better substrate or ligand; peptides without Tyr show the background).
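Note: 11-residue human phosphosite peptides and single-mutation variants displayed on the E. coli surface, counted by deep sequencing, each peptide's frequency after selection divided by its frequency in the unselected input library; frequency after pTyr selection over input frequency; kinase dosed for 20-30% of maximal phosphorylation in three min.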

Hck, sequence (P08631 whole entry, looked up): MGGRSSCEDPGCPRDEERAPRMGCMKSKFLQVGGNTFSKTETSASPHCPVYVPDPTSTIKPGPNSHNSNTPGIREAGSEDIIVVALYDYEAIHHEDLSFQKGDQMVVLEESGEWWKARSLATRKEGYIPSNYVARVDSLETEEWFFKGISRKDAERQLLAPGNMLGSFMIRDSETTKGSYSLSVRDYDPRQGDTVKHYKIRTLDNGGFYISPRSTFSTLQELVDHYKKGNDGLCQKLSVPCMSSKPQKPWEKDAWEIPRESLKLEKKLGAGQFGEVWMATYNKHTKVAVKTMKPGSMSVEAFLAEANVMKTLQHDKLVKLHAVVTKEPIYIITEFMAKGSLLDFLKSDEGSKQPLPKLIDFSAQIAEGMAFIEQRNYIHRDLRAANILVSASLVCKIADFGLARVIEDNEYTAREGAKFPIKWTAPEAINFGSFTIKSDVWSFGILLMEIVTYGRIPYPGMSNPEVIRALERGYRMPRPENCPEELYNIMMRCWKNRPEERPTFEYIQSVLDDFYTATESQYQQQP

Sequence	phosphorylation enrichment
TYACSYTPVKA [FLNB_Y708]	1.32
FASAEYQEALS [GALNS_Y461]	0.481
DGQFVYKLTDF [TBK1_Y153_S151F]	0.832
MAHDRYAAICS [OR8H2_Y123]	0.48
IYRASYYRKGG [ALK_Y1282]	0.476
GGYTRYCDGKK [PROS1_Y266_C265R]	0.446
PLKALYLQQRL [ATM_Y2969_P2974L]	0.62
KSEMSCIDGEK [SORBS1_Y485_Y485C]	0.447
EEQKKYSNAMK [SCN5A_Y1494_Y1495S]	0.37
NPPGMHPVTGP [LPP_Y346_Y346H]	0.28
DKWFLYKMRDI [CPS1_Y879]	0.469
GESSGYLRLAF [MEP1A_Y481_R476G]	0.451
SFIGQYSGKKE [L1CAM_Y1229]	0.486
DYCDLYGGEKF [PTPN11_Y66_Y63C]	2.31
WFPFTYVEEDE [VAV3_Y842_S840Y_YF]	0.437
KLNNEHLELNF [MME_Y497_Y497H_YF]	0.464
SSDPDYLAAVD [GLB1_Y154]	0.631

Sequence	phosphorylation enrichment
RSYSPYDYQPC [TNS1_Y796]	1.29
PQGVSYIFTID [DCX_Y103_R102S_YF]	0.509
SVMAEYGLYRA [VSX2_Y219_G223R]	6.46
SASWTYVRWFD [PTDSS1_Y274_P269S]	0.64
GDEEDYYEIPG [EGFR_opt_no-pY_2015]	0.963
AEDEDYESVGA [SYKtide_2014]	0.658
TLSGIYQYIIA [FOXL2_Y81]	7.53
PGVNFYFRVSA	0.817
AVLVQYFMEHH [PTPN11_Y80_E76V_YF]	0.448
EVQKNYEHLFK [PAM16_Y77]	0.438
GVLKEYGGKVL [CPS1_Y529_V531G]	0.403
AVDVTYDGHPV [FLNB_Y1020]	2.78
ITRDIYETDYY [INSR_Y1185_M1180I]	1.19
EAEALYQTTFQ [KRT73_Y325_K328T]	4.59
LCRFGYANTSE [SI_Y1233_YF]	0.422
NESVDSRATFP [MET_Y1003_Y1003S]	0.492

What follows are sequences tested against EPHB1 (UniProt P54762) in the same assay as above.
EPHB1, sequence (P54762 whole entry, looked up): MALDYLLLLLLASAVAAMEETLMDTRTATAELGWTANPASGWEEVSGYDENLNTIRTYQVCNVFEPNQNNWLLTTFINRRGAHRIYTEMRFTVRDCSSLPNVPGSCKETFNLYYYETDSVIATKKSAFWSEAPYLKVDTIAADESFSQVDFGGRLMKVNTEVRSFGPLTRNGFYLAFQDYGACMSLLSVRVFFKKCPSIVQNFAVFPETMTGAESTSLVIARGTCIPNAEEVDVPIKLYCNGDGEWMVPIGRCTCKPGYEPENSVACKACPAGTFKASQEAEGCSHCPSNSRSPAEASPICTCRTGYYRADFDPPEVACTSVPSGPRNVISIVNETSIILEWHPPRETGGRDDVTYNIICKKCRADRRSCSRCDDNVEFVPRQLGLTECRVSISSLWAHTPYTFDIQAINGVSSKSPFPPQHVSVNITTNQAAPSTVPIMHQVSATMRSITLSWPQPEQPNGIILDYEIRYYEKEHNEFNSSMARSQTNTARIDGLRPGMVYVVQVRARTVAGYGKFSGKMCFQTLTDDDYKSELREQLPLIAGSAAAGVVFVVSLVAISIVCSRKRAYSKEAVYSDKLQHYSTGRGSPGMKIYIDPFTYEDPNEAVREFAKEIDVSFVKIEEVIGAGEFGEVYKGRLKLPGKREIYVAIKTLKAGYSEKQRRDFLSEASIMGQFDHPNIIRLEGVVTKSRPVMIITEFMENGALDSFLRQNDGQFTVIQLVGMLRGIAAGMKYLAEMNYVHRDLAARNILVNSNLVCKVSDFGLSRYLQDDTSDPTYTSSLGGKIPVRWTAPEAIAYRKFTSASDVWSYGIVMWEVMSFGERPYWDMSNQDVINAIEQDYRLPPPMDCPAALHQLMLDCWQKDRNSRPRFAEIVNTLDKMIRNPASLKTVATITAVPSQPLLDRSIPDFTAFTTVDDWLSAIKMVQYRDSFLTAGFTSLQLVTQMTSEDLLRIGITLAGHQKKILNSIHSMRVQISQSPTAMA

Sequence	phosphorylation enrichment
TYACSYTPVKA [FLNB_Y708]	0.567
FASAEYQEALS [GALNS_Y461]	0.454
DGQFVYKLTDF [TBK1_Y153_S151F]	0.467
MAHDRYAAICS [OR8H2_Y123]	0.41
IYRASYYRKGG [ALK_Y1282]	0.419
GGYTRYCDGKK [PROS1_Y266_C265R]	0.347
PLKALYLQQRL [ATM_Y2969_P2974L]	0.539
KSEMSCIDGEK [SORBS1_Y485_Y485C]	0.491
EEQKKYSNAMK [SCN5A_Y1494_Y1495S]	0.429
NPPGMHPVTGP [LPP_Y346_Y346H]	0.299
DKWFLYKMRDI [CPS1_Y879]	0.671
GESSGYLRLAF [MEP1A_Y481_R476G]	0.536
SFIGQYSGKKE [L1CAM_Y1229]	0.452
DYCDLYGGEKF [PTPN11_Y66_Y63C]	2.93
WFPFTYVEEDE [VAV3_Y842_S840Y_YF]	0.702
KLNNEHLELNF [MME_Y497_Y497H_YF]	0.514
SSDPDYLAAVD [GLB1_Y154]	0.693

Sequence	phosphorylation enrichment
RSYSPYDYQPC [TNS1_Y796]	1.81
PQGVSYIFTID [DCX_Y103_R102S_YF]	0.726
SVMAEYGLYRA [VSX2_Y219_G223R]	0.701
SASWTYVRWFD [PTDSS1_Y274_P269S]	0.835
GDEEDYYEIPG [EGFR_opt_no-pY_2015]	0.919
AEDEDYESVGA [SYKtide_2014]	0.815
TLSGIYQYIIA [FOXL2_Y81]	12.9
PGVNFYFRVSA	0.914
AVLVQYFMEHH [PTPN11_Y80_E76V_YF]	0.638
EVQKNYEHLFK [PAM16_Y77]	0.57
GVLKEYGGKVL [CPS1_Y529_V531G]	0.393
AVDVTYDGHPV [FLNB_Y1020]	1.09
ITRDIYETDYY [INSR_Y1185_M1180I]	1.45
EAEALYQTTFQ [KRT73_Y325_K328T]	1.27
LCRFGYANTSE [SI_Y1233_YF]	0.454
NESVDSRATFP [MET_Y1003_Y1003S]	0.427
